The target of series [1] is T1, SIX1 (human, UniProt Q15475 1-284).
T1 sequence: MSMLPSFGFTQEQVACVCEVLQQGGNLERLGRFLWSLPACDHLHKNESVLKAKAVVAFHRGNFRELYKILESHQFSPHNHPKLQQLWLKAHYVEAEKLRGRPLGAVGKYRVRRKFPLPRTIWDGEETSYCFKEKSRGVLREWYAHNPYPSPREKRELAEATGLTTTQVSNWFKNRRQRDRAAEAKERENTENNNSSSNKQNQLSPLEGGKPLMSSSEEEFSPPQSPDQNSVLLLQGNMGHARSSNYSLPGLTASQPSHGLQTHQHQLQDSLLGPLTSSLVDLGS
The series is described as follows: EMSA; EMSA: Active Motif Gelshift or Thermo LightShift chemiluminescent kit binding buffer, no glycerol, no poly d(I-C), RT 25 min; protein dilutions 1-300 nM; 6% gel in 0.5x TBE; pH and salt not given. The following applies: protein: recombinant; tags: N-terminal HA from pGEX-6p1-N-HA (GST removed with PreScission); label: biotin 3' end (both strands, Pierce 3' end-labeling kit); blunt. (In EMSA bound probe runs differently from free probe, usually more slowly.)

Series [2] addresses T1, SIX1. The experiment in a line: EMSA; modest increase in affinity vs N1; EMSA: Active Motif Gelshift or Thermo LightShift chemiluminescent kit binding buffer, no glycerol, no poly d(I-C), RT 25 min; protein dilutions 1-300 nM; 6% gel in 0.5x TBE; pH and salt not given. Conditions: protein: recombinant; tags: N-terminal HA from pGEX-6p1-N-HA (GST removed with PreScission); label: biotin 3' end (both strands, Pierce 3' end-labeling kit); blunt.

B1: WNT5A_promoter_EMSA (dsDNA)
DNA 1: CCCGCCCTAAGTGTCAAATTTCCTCCAGGGGAG
DNA 2: CTCCCCTGGAGGAAATTTGACACTTAGGGCGGG
Turning to B1, in the series with SIX1 [1], the binding signal is ~0.1 affinity relative to SIX1-Q177R on same probe.

B2: WNT5A_promoter_EMSAmut (dsDNA)
DNA 1: CCCGCCCTAAGTATCAAATTTCCTCCAGGGGAG
DNA 2: CTCCCCTGGAGGAAATTTGATACTTAGGGCGGG
As to B2, the binding result in the series with SIX1 [2] is “binds”.

The values are drawn from publication PMC10668032, “Altered binding affinity of SIX1-Q177R correlates with enhanced WNT5A and WNT pathway effector expression in Wilms tumor”.
